According to article PMC11539162, “Distinct roles for the domains of the mitochondrial aspartate/glutamate carrier citrin in organellar localization and substrate transport” (Molecular Metabolism, 2024):

Molecular target: the molecule itself
Assay: SEC; size exclusion chromatography of purified full-length citrin and of the calcium-binding site mutant; column and buffer not told

B1: human citrin (mitochondrial aspartate/glutamate carrier isoform 2), full-length wild type (natural protein, UniProt Q9UJS0-1 1-675, looked up)
chain: MAAAKVALTKRADPAELRTIFLKYASIEKNGEFFMSPNDFVTRYLNIFGESQPNPKTVELLSGVVDQTKDGLISFQEFVAFESVLCAPDALFMVAFQLFDKAGKGEVTFEDVKQVFGQTTIHQHIPFNWDSEFVQLHFGKERKRHLTYAEFTQFLLEIQLEHAKQAFVQRDNARTGRVTAIDFRDIMVTIRPHVLTPFVEECLVAAAGGTTSHQVSFSYFNGFNSLLNNMELIRKIYSTLAGTRKDVEVTKEEFVLAAQKFGQVTPMEVDILFQLADLYEPRGRMTLADIERIAPLEEGTLPFNLAEAQRQKASGDSARPVLLQVAESAYRFGLGSVAGAVGATAVYPIDLVKTRMQNQRSTGSFVGELMYKNSFDCFKKVLRYEGFFGLYRGLLPQLLGVAPEKAIKLTVNDFVRDKFMHKDGSVPLAAEILAGGCAGGSQVIFTNPLEIVKIRLQVAGEITTGPRVSALSVVRDLGFFGIYKGAKACFLRDIPFSAIYFPCYAHVKASFANEDGQVSPGSLLLAGAIAGMPAASLVTPADVIKTRLQVAARAGQTTYSGVIDCFRKILREEGPKALWKGAGARVFRSSPQFGVTLLTYELLQRWFYIDFGGVKPMGSEPVPKSRINLPAPNPDHVGGYKLAVATFAGIENKFGLYLPLFKPSVSTSKAIGGGP
notes: human citrin (AGC2), full length, codon-optimised cDNA; UniProt Q9UJS0, isoform NP_055066.1; The tag is followed by a TEV site (ENLYFQG); the protein was released from the resin by TEV digestion; NP_055066.1 is printed for the mammalian construct; the yeast construct is called a codon-optimised cDNA of human citrin; also called AGC2; wild-type citrin; source: S. cerevisiae W303-1B, mitochondria …
B1 was tested, and the “stoichiometry N” value was 2.

B2: human citrin D66A/T68A/D70A/E77A, full-length calcium-binding site mutant (natural protein, UniProt Q9UJS0-1 1-675, looked up)
chain: MAAAKVALTKRADPAELRTIFLKYASIEKNGEFFMSPNDFVTRYLNIFGESQPNPKTVELLSGVVAQAKAGLISFQAFVAFESVLCAPDALFMVAFQLFDKAGKGEVTFEDVKQVFGQTTIHQHIPFNWDSEFVQLHFGKERKRHLTYAEFTQFLLEIQLEHAKQAFVQRDNARTGRVTAIDFRDIMVTIRPHVLTPFVEECLVAAAGGTTSHQVSFSYFNGFNSLLNNMELIRKIYSTLAGTRKDVEVTKEEFVLAAQKFGQVTPMEVDILFQLADLYEPRGRMTLADIERIAPLEEGTLPFNLAEAQRQKASGDSARPVLLQVAESAYRFGLGSVAGAVGATAVYPIDLVKTRMQNQRSTGSFVGELMYKNSFDCFKKVLRYEGFFGLYRGLLPQLLGVAPEKAIKLTVNDFVRDKFMHKDGSVPLAAEILAGGCAGGSQVIFTNPLEIVKIRLQVAGEITTGPRVSALSVVRDLGFFGIYKGAKACFLRDIPFSAIYFPCYAHVKASFANEDGQVSPGSLLLAGAIAGMPAASLVTPADVIKTRLQVAARAGQTTYSGVIDCFRKILREEGPKALWKGAGARVFRSSPQFGVTLLTYELLQRWFYIDFGGVKPMGSEPVPKSRINLPAPNPDHVGGYKLAVATFAGIENKFGLYLPLFKPSVSTSKAIGGGP
notes: Same construct as m1 apart from the four substitutions; also called quadruple alanine mutant; quadruple mutant; source: S. cerevisiae W303-1B, mitochondria solubilised in LMNG, purified (nickel Sepharose, on-column TEV digestion); not shown: His8, N-terminal, cleaved
For B2, the “stoichiometry N” value was 2.
